Numbering of substitutions follows the chain as printed.

Data on one molecule can be found in patent US20170306005A1 (NASCIENT, published 2017).

In test [1] the target is T1, mouse tenascin-C rCd4-His-FBG (rat; mouse, UniProt P05540 207-392, limits assumed).
T1 construct: domain: domains 3 and 4; C-terminal FBG fusion; biotinylated in the ELISA screen; also called Mu TNC; mouse TNC rCd4-His-FBG; not shown: 6His tag
T1 sequence (chain (part 1 of 2)): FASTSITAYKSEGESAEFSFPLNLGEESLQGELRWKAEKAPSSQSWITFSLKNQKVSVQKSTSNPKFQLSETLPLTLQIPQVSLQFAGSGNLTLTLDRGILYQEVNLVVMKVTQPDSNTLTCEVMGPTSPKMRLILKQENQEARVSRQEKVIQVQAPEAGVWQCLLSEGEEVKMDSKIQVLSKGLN
T1 sequence (chain (part 2 of 2)): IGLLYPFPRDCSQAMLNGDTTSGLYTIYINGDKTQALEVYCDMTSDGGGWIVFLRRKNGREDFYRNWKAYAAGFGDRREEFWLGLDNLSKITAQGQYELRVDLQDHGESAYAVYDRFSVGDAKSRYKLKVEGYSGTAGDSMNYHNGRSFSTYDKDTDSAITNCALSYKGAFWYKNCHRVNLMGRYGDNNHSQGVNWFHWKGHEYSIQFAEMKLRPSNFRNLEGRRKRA
Description: SPR steady state, captured Fab, 25 C. How it is done:
(§1) Experiments were performed using a BIAcore T100 instrument with CM5 sensor chip according to the protocol provided with the Human Fab Capture Kit (GE, 28-9583-25). […] After reference signal subtraction, the data was fitted to a global 1:1 fit using the T100 BIAevaluation software (FIGS. 6 a-d).

Test [2] addresses T2, human tenascin-R rCd4-His-FBG (rat; human, UniProt P05540 207-392, limits assumed).
T2 construct: domain: domains 3 and 4; C-terminal FBG fusion; also called Hu TNR; human TNR rCd4-His-FBG; not shown: 6His tag
T2 sequence (chain (part 1 of 2)): T1 sequence (chain (part 1 of 2))
T2 sequence (chain (part 2 of 2)): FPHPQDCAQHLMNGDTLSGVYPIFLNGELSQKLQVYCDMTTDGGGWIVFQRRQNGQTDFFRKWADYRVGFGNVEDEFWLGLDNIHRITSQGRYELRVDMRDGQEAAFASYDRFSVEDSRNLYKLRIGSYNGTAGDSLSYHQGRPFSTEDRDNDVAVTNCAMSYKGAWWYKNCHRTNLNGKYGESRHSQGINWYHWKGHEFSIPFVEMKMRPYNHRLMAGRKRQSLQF
As to the kind of experiment: SPR steady state, captured Fab, 25 C. As for the experimental part: as §1

Test [3] addresses T3, human Fc-His-FBG (human, UniProt P24821 1974-2201).
T3 sequence: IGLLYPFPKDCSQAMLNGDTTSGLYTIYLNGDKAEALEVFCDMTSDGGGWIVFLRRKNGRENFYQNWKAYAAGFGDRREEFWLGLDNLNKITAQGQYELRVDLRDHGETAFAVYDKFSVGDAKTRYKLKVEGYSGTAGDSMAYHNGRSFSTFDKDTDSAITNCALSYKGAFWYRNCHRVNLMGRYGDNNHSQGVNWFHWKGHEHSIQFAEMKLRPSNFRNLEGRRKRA
Description: cell-based or functional assay.

Test [4] concerns the target T4, human tenascin-C rCd4-His-FBG (rat; human, UniProt P05540 207-392, limits assumed).
T4 construct: domain: domains 3 and 4; C-terminal FBG fusion; biotinylated in the ELISA and HTRF screens; also called Hu TNC; human TNC rCd4-His-FBG; not shown: 6His tag
T4 sequence (chain (part 1 of 2)): T1 sequence (chain (part 1 of 2))
T4 sequence (chain (part 2 of 2)): T3 sequence
As to the kind of experiment: SPR, captured Fab, 25 C. How it is done:
as §1

The target in test [5] is T5, rat tenascin-C rCd4-His-FBG (rat, UniProt P05540 207-392, limits assumed).
T5 construct: domain: domains 3 and 4; C-terminal FBG fusion; also called Rat TNC; rat TNC rCD4-His-FBG; not shown: 6His tag
T5 sequence (chain (part 1 of 2)): T1 sequence (chain (part 1 of 2))
T5 sequence (chain (part 2 of 2)): T1 sequence (chain (part 2 of 2)) with A72T
As to the kind of experiment: SPR, captured Fab, 25 C. How it is done: as §1

Test [6] has as its target T1, mouse tenascin-C rCd4-His-FBG. Description: SPR, captured Fab, 25 C. As for the experimental part: as §1
In general terms: Surface plasmon resonance follows binding to a sensor surface in real time, without labels.

For test [7], the target named is T2, human tenascin-R rCd4-His-FBG. As to the kind of experiment: SPR, captured Fab, 25 C. How it is done: as §1
For test [8], the target named is T6, Human FGB-rCd4.
T6 construct: Not the same construct as m1, which has the FBG at the C terminus; also called human TNC FBG-rCD4; human tenascin-C FBG-rCd4-His (FBG at the N terminus of the rat Cd4 tag); not shown: rat Cd4 (domains 3 and 4) tag, the C-terminal His6 tag and the vector-derived junction residues of pBIOCAM4
T6 chain: T3 sequence
Description: ELISA (DELFIA), antigen coated on the well, purified Fab at 50 nM, detected with anti-kappa or anti-lambda mAb and Europium-conjugated anti-mouse mAb. Background: An ELISA detects its analyte on a solid surface through an enzyme-linked reagent.

In test [9] the target is T4, human tenascin-C rCd4-His-FBG. As to the kind of experiment: SPR, 25 C.

B1: Fab B12 (Fab, V domains shown)
VH: QVQLVESGGGLVQPGRSLRLSCAASGFTFDDYAMHWVRQAPGKGLEWVSGISGSGGSTYYADSVKGRFTISRDNAKNSLYLQMNSLRAEDTALYYCAKDISAVPDTFDIWGQGTMVTVSS
VL: DIQMTQSPASLPTPVGDRVTITCRASQYIQGFLNWYQQKPGKAPKLLIYDASNLETGVPSRFSGSGSGTDFTLTISSLQPEDFATYYCQQSYSTPQTFGQGTKVDIKR
notes: monomeric Fab
In the case of B1, the Kd (in general, the constant that tells how readily two partners part at equilibrium) is 18.7 nM in [1]; 36.1 nM in test [2]; 0.111 nM in test [4]; 7.9 nM in test [5]; 13 nM in test [6]; 33.9 nM in test [7]. Moreover, the “IC50, inhibition of Fc-His-HuFBG-evoked IL-8 release, THP1-Blue cells” value in [3] was determined as 6.9 nM. Also, the “IC50, inhibition of Fc-His-HuFBG-evoked alkaline phosphatase, THP1-Blue cells” value in test [3] is 1.7 nM. Further, the koff (commonly a measure of how fast the partners let go of each other) in test [4] is 0.0003 s⁻¹; in [5] it was 0.0748 s⁻¹; in test [6] it was 0.0675 s⁻¹; in test [7], 0.0473 s⁻¹. In addition, the kon (in general, the rate constant with which the complex forms) in test [4] came out at 2.66e+06 M⁻¹ s⁻¹; in test [5] it was 9.46e+06 M⁻¹ s⁻¹; in test [6] it was 5.22e+06 M⁻¹ s⁻¹; in test [7], 1.4e+06 M⁻¹ s⁻¹. For the same molecule, the binding result in test [8] was “binds”. Also, the “fold stronger affinity than 2A5” value in test [9] was approximately 100 fold.
